Assay results published in the Human Domainome abundance scans (Beltran et al. 2025).
± gives the uncertainty stated by the source.

B1: Gamma-crystallin S, residues 96 to 176; numbered along this chain, P22914 (parent)
chain: IQIFEKGDFSGQMYETTEDCPSIMEQFHMREIHSCKVLEGVWIFYELPNYRGRQYLLDKKEYRKPIDWGAASPAVQSFRRI

Variants of: B1
Experiment: abundance fitness (aPCA) (normalised: wild type 0, dead -1); higher = more abundant; growth selection in yeast, the domain comes from the species named
Conditions: Homo sapiens
With IQIFEKGDFSGQMYETTEDCPSIMEQFHMREIHSCKVLEGVMIFYELPNYRGRQYLLDKKEYRKPIDWGAASPAVQSFRRI [W42M] the abundance fitness was -0.231 ± 0.096. In the case of IQIFEKGDFSGQMYETTEDCPSIMEQFHMREIHSCKVLEGVTIFYELPNYRGRQYLLDKKEYRKPIDWGAASPAVQSFRRI [W42T], the abundance fitness is reported as -0.709 ± 0.13. Variant IQIFEKGDFSGQMYETTEDCPSIMEQFHMREIHSCKVLEGVCIFYELPNYRGRQYLLDKKEYRKPIDWGAASPAVQSFRRI [W42C] has an abundance fitness of -0.156 ± 0.073. IQIFEKGDFSGQMYETTEDCPSIMEQFHMREIHSCKVLEGVHIFYELPNYRGRQYLLDKKEYRKPIDWGAASPAVQSFRRI [W42H] gave an abundance fitness of -0.461 ± 0.14. Variant IQIFEKGDFSGQMYETTEDCPSIMEQFHMREIHSCKVLEGVNIFYELPNYRGRQYLLDKKEYRKPIDWGAASPAVQSFRRI [W42N] has an abundance fitness of -0.445 ± 0.13. With IQIFEKGDFSGQMYETTEDCPSIMEQFHMREIHSCKVLEGVDIFYELPNYRGRQYLLDKKEYRKPIDWGAASPAVQSFRRI [W42D] the abundance fitness was -1.06 ± 0.32. Work on IQIFEKGDFSGQMYETTEDCPSIMEQFHMREIHSCKVLEGVFIFYELPNYRGRQYLLDKKEYRKPIDWGAASPAVQSFRRI [W42F] yielded an abundance fitness of -0.051 ± 0.11. In the case of IQIFEKGDFSGQMYETTEDCPSIMEQFHMREIHSCKVLEGVGIFYELPNYRGRQYLLDKKEYRKPIDWGAASPAVQSFRRI [W42G], the abundance fitness is reported as -1.02 ± 0.092. Variant IQIFEKGDFSGQMYETTEDCPSIMEQFHMREIHSCKVLEGVYIFYELPNYRGRQYLLDKKEYRKPIDWGAASPAVQSFRRI [W42Y] has an abundance fitness of 0.046 ± 0.073. IQIFEKGDFSGQMYETTEDCPSIMEQFHMREIHSCKVLEGVVIFYELPNYRGRQYLLDKKEYRKPIDWGAASPAVQSFRRI [W42V] showed an abundance fitness of -0.042 ± 0.046. IQIFEKGDFSGQMYETTEDCPSIMEQFHMREIHSCKVLEGVAIFYELPNYRGRQYLLDKKEYRKPIDWGAASPAVQSFRRI [W42A] gave an abundance fitness of -0.157 ± 0.056. IQIFEKGDFSGQMYETTEDCPSIMEQFHMREIHSCKVLEGVSIFYELPNYRGRQYLLDKKEYRKPIDWGAASPAVQSFRRI [W42S] gave an abundance fitness of -0.901 ± 0.091. For IQIFEKGDFSGQMYETTEDCPSIMEQFHMREIHSCKVLEGVKIFYELPNYRGRQYLLDKKEYRKPIDWGAASPAVQSFRRI [W42K], the abundance fitness was -0.787 ± 0.19. IQIFEKGDFSGQMYETTEDCPSIMEQFHMREIHSCKVLEGVQIFYELPNYRGRQYLLDKKEYRKPIDWGAASPAVQSFRRI [W42Q] showed an abundance fitness of -0.906 ± 0.24. In the case of IQIFEKGDFSGQMYETTEDCPSIMEQFHMREIHSCKVLEGVLIFYELPNYRGRQYLLDKKEYRKPIDWGAASPAVQSFRRI [W42L], the abundance fitness is reported as -0.241 ± 0.064. For IQIFEKGDFSGQMYETTEDCPSIMEQFHMREIHSCKVLEGVRIFYELPNYRGRQYLLDKKEYRKPIDWGAASPAVQSFRRI [W42R], the abundance fitness was -0.986 ± 0.093. Work on IQIFEKGDFSGQMYETTEDCPSIMEQFHMREIHSCKVLEGVWIRYELPNYRGRQYLLDKKEYRKPIDWGAASPAVQSFRRI [F44R] yielded an abundance fitness of -1.02 ± 0.086. IQIFEKGDFSGQMYETTEDCPSIMEQFHMREIHSCKVLEGVWIAYELPNYRGRQYLLDKKEYRKPIDWGAASPAVQSFRRI [F44A] showed an abundance fitness of -0.007 ± 0.05. For IQIFEKGDFSGQMYETTEDCPSIMEQFHMREIHSCKVLEGVWISYELPNYRGRQYLLDKKEYRKPIDWGAASPAVQSFRRI [F44S], the abundance fitness was -0.272 ± 0.055. Variant IQIFEKGDFSGQMYETTEDCPSIMEQFHMREIHSCKVLEGVWIQYELPNYRGRQYLLDKKEYRKPIDWGAASPAVQSFRRI [F44Q] has an abundance fitness of -0.602 ± 0.097. Work on IQIFEKGDFSGQMYETTEDCPSIMEQFHMREIHSCKVLEGVWICYELPNYRGRQYLLDKKEYRKPIDWGAASPAVQSFRRI [F44C] yielded an abundance fitness of 0.035 ± 0.068. In the case of IQIFEKGDFSGQMYETTEDCPSIMEQFHMREIHSCKVLEGVWIEYELPNYRGRQYLLDKKEYRKPIDWGAASPAVQSFRRI [F44E], the abundance fitness is reported as -0.951 ± 0.18. For IQIFEKGDFSGQMYETTEDCPSIMEQFHMREIHSCKVLEGVWIMYELPNYRGRQYLLDKKEYRKPIDWGAASPAVQSFRRI [F44M], the abundance fitness was 0.064 ± 0.055. In the case of IQIFEKGDFSGQMYETTEDCPSIMEQFHMREIHSCKVLEGVWIPYELPNYRGRQYLLDKKEYRKPIDWGAASPAVQSFRRI [F44P], the abundance fitness is reported as -1.11 ± 0.45. Work on IQIFEKGDFSGQMYETTEDCPSIMEQFHMREIHSCKVLEGVWILYELPNYRGRQYLLDKKEYRKPIDWGAASPAVQSFRRI [F44L] yielded an abundance fitness of 0.005 ± 0.052. For IQIFEKGDFSGQMYETTEDCPSIMEQFHMREIHSCKVLEGVWIYYELPNYRGRQYLLDKKEYRKPIDWGAASPAVQSFRRI [F44Y], the abundance fitness was -0.104 ± 0.12. Variant IQIFEKGDFSGQMYETTEDCPSIMEQFHMREIHSCKVLEGVWINYELPNYRGRQYLLDKKEYRKPIDWGAASPAVQSFRRI [F44N] has an abundance fitness of -0.868 ± 0.44. In the case of IQIFEKGDFSGQMYETTEDCPSIMEQFHMREIHSCKVLEGVWIGYELPNYRGRQYLLDKKEYRKPIDWGAASPAVQSFRRI [F44G], the abundance fitness is reported as 0.015 ± 0.04. IQIFEKGDFSGQMYETTEDCPSIMEQFHMREIHSCKVLEGVWIHYELPNYRGRQYLLDKKEYRKPIDWGAASPAVQSFRRI [F44H] showed an abundance fitness of -0.441 ± 0.075. For IQIFEKGDFSGQMYETTEDCPSIMEQFHMREIHSCKVLEGVWIWYELPNYRGRQYLLDKKEYRKPIDWGAASPAVQSFRRI [F44W], the abundance fitness was -0.141 ± 0.075. IQIFEKGDFSGQMYETTEDCPSIMEQFHMREIHSCKVLEGVWIVYELPNYRGRQYLLDKKEYRKPIDWGAASPAVQSFRRI [F44V] gave an abundance fitness of 0.009 ± 0.053. Variant IQIFEKGDFSGQMYETTEDCPSIMEQFHMREIHSCKVLEGVWITYELPNYRGRQYLLDKKEYRKPIDWGAASPAVQSFRRI [F44T] has an abundance fitness of -0.195 ± 0.069. For IQIFEKGDFSGQMYETTEDCPSIMEQFHMREIHSCKVLEGVWIKYELPNYRGRQYLLDKKEYRKPIDWGAASPAVQSFRRI [F44K], the abundance fitness was -0.929 ± 0.22. For IQIFEKGDFSGQMYETTEDCPSIMEQFHMREIHSCKVLEGVWIIYELPNYRGRQYLLDKKEYRKPIDWGAASPAVQSFRRI [F44I], the abundance fitness was -0.215 ± 0.25.
